According to article PMC9643514, “Regulation of BRCA1 stability through the tandem UBX domains of isoleucyl-tRNA synthetase 1” (Nature Communications, 2022):

T1: His-IARS1, full-length human IARS1 (residues 1−1262) (human, UniProt P41252 1-1262)
T1 construct: pFASTbacHTb vector; also called purified IARS1; full-length IARS1; source: Sf9, purified (Ni2+ column, IEX, SEC); not shown: His6, N-terminal, kept
T1 sequence (looked up): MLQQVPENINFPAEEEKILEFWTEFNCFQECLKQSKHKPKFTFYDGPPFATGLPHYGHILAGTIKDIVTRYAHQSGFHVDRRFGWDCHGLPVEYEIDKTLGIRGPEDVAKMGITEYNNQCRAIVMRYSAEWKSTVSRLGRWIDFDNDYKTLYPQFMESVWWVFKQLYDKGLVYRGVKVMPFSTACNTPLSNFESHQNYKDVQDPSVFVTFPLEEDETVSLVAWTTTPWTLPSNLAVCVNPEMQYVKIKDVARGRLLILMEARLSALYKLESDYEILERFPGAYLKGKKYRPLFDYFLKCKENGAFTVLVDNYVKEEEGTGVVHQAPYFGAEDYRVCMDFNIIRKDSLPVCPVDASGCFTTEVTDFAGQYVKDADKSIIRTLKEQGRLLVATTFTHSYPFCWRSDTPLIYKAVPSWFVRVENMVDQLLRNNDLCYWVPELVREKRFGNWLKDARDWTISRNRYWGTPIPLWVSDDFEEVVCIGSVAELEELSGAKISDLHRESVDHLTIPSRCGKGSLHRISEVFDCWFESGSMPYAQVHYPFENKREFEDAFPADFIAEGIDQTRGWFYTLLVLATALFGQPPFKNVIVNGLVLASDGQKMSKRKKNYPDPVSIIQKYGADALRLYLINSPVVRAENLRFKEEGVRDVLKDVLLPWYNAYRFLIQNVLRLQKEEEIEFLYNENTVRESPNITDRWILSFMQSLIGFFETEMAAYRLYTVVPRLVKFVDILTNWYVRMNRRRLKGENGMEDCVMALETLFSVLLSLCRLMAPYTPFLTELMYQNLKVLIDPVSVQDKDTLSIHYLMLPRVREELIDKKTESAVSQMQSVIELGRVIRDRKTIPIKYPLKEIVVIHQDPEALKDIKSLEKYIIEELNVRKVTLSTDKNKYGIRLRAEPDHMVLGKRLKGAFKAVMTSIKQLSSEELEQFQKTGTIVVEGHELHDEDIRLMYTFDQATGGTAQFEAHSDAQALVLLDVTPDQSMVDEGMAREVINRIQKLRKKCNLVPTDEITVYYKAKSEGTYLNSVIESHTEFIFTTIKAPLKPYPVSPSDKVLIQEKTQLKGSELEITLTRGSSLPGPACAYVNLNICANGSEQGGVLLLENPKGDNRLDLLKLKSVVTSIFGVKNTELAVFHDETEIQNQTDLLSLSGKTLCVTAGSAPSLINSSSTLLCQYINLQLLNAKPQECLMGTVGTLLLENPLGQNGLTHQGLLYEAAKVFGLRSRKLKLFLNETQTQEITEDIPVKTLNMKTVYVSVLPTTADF


Key:
[1] = target: T1, His-IARS1, full-length human IARS1 …; assay: pull-down; in vitro pull-down of IARS1 with fragments of the BRCA1-BARD1 complex; conditions: both partners purified
[2] = target: T1, His-IARS1, full-length human IARS1 …; assay: pull-down; human His-IARS1 or IARS1ΔUBX2 mixed with human GST-EARS1 at 1:1.5, 30 min at 4 °C, Ni-sepharose beads 2 hr at 4 °C, eluted with 250 mM imidazole in His A buffer (20 mM Tris-HCl pH 7.4, 300 mM NaCl, 7 mM 2-mercaptoethanol, 5% glycerol), SDS-PAGE and Coomassie; conditions: both partners purified

binding result [1]	binding result [2]	Binder
binds		heterodimeric RING (BRCA1 residues 1–304)-RING (BARD1 residues 26–142) domains of the BRCA1-BARD1 complex (complex, also called RING-RING domains; source: expressed and purified as the BRCA1-BARD1 complex) chain 1: MDLSALRVEEVQNVINAMQKILECPICLELIKEPVSTKCDHIFCKFCMLKLLNQKKGPSQCPLCKNDITKRSLQESTRFSQLVEELLKIICAFQLDTGLEYANSYNFAKKENNSPEHLKDEVSIIQSMGYRNRAKRLLQSEPENPSLQETSLSVQLSNLGTVRTLRTKQRIQPQKTSVYIELGSDSSEDTVNKATYCSVGDQELLQITPQGTRDEISLDSAKKAACEFSETDVTNTEHHQPSNNDLNTTEKRAAERHPEKYQGSSVSNLHVEPCGTNTHASSLQHENSSLLLTKDRMNVEKAEF chain 2: MEPDGRGAWAHSRAALDRLEKLLRCSRCTNILREPVCLGGCEHIFCSNCVSDCIGTGCPVCYTPAWIQDLKINRQLDSMIQLCSKLRNLLHDNELSDLKEDKPRKSLFNDAGNKKNS
	binds	GST-EARS1 without the WHEP motifs (human EPRS1 residues 1−706) (domain or fragment, UniProt P07814 1-706, looked up, human EPRS1, EARS1 part without the three WHEP motifs, residues 1-706; pGEX4T3 vector; source: E. coli Rosetta (DE3), purified (GST column, gel filtration)) MATLSLTVNSGDPPLGALLAVEHVKDDVSISVEEGKENILHVSENVIFTDVNSILRYLARVATTAGLYGSNLMEHTEIDHWLEFSATKLSSCDSFTSTINELNHCLSLRTYLVGNSLSLADLCVWATLKGNAAWQEQLKQKKAPVHVKRWFGFLEAQQAFQSVGTKWDVSTTKARVAPEKKQDVGKFVELPGAEMGKVTVRFPPEASGYLHIGHAKAALLNQHYQVNFKGKLIMRFDDTNPEKEKEDFEKVILEDVAMLHIKPDQFTYTSDHFETIMKYAEKLIQEGKAYVDDTPAEQMKAEREQRIDSKHRKNPIEKNLQMWEEMKKGSQFGQSCCLRAKIDMSSNNGCMRDPTLYRCKIQPHPRTGNKYNVYPTYDFACPIVDSIEGVTHALRTTEYHDRDEQFYWIIEALGIRKPYIWEYSRLNLNNTVLSKRKLTWFVNEGLVDGWDDPRFPTVRGVLRRGMTVEGLKQFIAAQGSSRSVVNMEWDKIWAFNKKVIDPVAPRYVALLKKEVIPVNVPEAQEEMKEVAKHPKNPEVGLKPVWYSPKVFIEGADAETFSEGEMVTFINWGNLNITKIHKNADGKIISLDAKLNLENKDYKKTTKVTWLAETTHALPIPVICVTYEHLITKPVLGKDEDFKQYVNKNSKHEELMLGDPCLKDLKKGDIIQLQRRGFFICDQPYEPVSPYSCKEAPCVLIYIPDGH
	binds	GST-EARS1 with three WHEP motifs (human EPRS1 residues 1–1015) (domain or fragment, UniProt P07814 1-1015, looked up, pGEX4T3 vector; source: E. coli Rosetta (DE3), purified (GST column, gel filtration)) MATLSLTVNSGDPPLGALLAVEHVKDDVSISVEEGKENILHVSENVIFTDVNSILRYLARVATTAGLYGSNLMEHTEIDHWLEFSATKLSSCDSFTSTINELNHCLSLRTYLVGNSLSLADLCVWATLKGNAAWQEQLKQKKAPVHVKRWFGFLEAQQAFQSVGTKWDVSTTKARVAPEKKQDVGKFVELPGAEMGKVTVRFPPEASGYLHIGHAKAALLNQHYQVNFKGKLIMRFDDTNPEKEKEDFEKVILEDVAMLHIKPDQFTYTSDHFETIMKYAEKLIQEGKAYVDDTPAEQMKAEREQRIDSKHRKNPIEKNLQMWEEMKKGSQFGQSCCLRAKIDMSSNNGCMRDPTLYRCKIQPHPRTGNKYNVYPTYDFACPIVDSIEGVTHALRTTEYHDRDEQFYWIIEALGIRKPYIWEYSRLNLNNTVLSKRKLTWFVNEGLVDGWDDPRFPTVRGVLRRGMTVEGLKQFIAAQGSSRSVVNMEWDKIWAFNKKVIDPVAPRYVALLKKEVIPVNVPEAQEEMKEVAKHPKNPEVGLKPVWYSPKVFIEGADAETFSEGEMVTFINWGNLNITKIHKNADGKIISLDAKLNLENKDYKKTTKVTWLAETTHALPIPVICVTYEHLITKPVLGKDEDFKQYVNKNSKHEELMLGDPCLKDLKKGDIIQLQRRGFFICDQPYEPVSPYSCKEAPCVLIYIPDGHTKEMPTSGSKEKTKVEATKNETSAPFKERPTPSLNNNCTTSEDSLVLYNRVAVQGDVVRELKAKKAPKEDVDAAVKQLLSLKAEYKEKTGQEYKPGNPPAEIGQNISSNSSASILESKSLYDEVAAQGEVVRKLKAEKSPKAKINEAVECLLSLKAQYKEKTGKEYIPGQPPLSQSSDSSPTRNSEPAGLETPEAKVLFDKVASQGEVVRKLKTEKAPKDQVDIAVQELLQLKAQYKSLIGVEYKPVSATGAEDKDKKKKEKENKSEKQNKPQKQNDGQRKDPSKNQGGGLSSSGAGEGQGPKKQTRLG
binds		BRCT domain (residues 1645–1863) of BRCA1 (domain or fragment, UniProt P38398 1645-1863, looked up, BRCA1 BRCT domain, residues 1645-1863; also called BRCA1 BRCT) RVNKRMSMVVSGLTPEEFMLVYKFARKHHITLTNLITEETTHVVMKTDAEFVCERTLKYFLGIAGGKWVVSYFWVTQSIKERKMLNEHDFEVRGDVVNGRNHQGPKRARESQDRKIFRGLEICCYGPFTNMPTDQLEWMVQLCGASVVKELSSFTLGTGVHPIVVVQPDAWTEDNGFHAIGQMCEAPVVTREWVLDSVALYQCQELDTYLIPQIPHSHY
